From the supplement of paper PMC10126150
± gives the standard deviation of the averaged measurements.

These sequences were tested on ATP (assay: switch fluorescence ratio, 500 uM ATP over buffer (Cy3 cluster intensity, sum of 5 cycles each) (fold (ratio)); higher = stronger signal-on switching upon ATP binding; sequences stand for … in TCGTCGGCAGCGTCAGATGTGTATAAGAGACAGTTTTTTTTTTTTTTTTTTTTTTTTT…TC). Details: aptamer strand: ATP DNA aptamer (quencher-CACCTGGGGGAGTATTGCGGAGGAAGG + anchor), 100 nM annealed; ATP concentration: 500 uM.
How it was run: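 Values give the fluorescence ratio for each switch-domain sequence, averaged from per-cluster ratios of summed target-cycle to summed buffer-cycle Cy3 intensity. The Cy3-labelled switching-strand clusters sat on a modified Illumina MiSeq flow-cell, were annealed to 100 nM quencher-labelled ATP aptamer, and were imaged in selection buffer, then after 15 min with 500 uM ATP at 22 °C. Five cycles ran with NaOH stripping and re-annealing between them, and clusters outside 100-1000 RFU were excluded.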
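Further: ATP exposure 15 min at 22 °C before imaging.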

Sequence | switch fluorescence ratio
TCGGTTGAGA | 1.01 ± 0.021
ATTAAAAAAC | 1.01 ± 0.016
AACTACAACG | 1.05 ± 0.018
TATACAATGG | 1.01 ± 0.024
CCTTTTGGGT | 1.015 ± 0.0095
AAGCCCGACG | 1.13 ± 0.11
GTTCGGCAGA | 1 ± 0.032
AGCAACAGTT | 1.19 ± 0.28
GGAATTGGAT | 1 ± 0.025
ATGAATATGC | 1.04 ± 0.043
ATTAACTTCG | 0.983 ± 0.013
GCCATTAAAC | 0.972 ± 0.03
TTAATTGATG | 1.01 ± 0.014
TCTTGTATAA | 0.9758 ± 0.0029
ACTGAGGAAA | 1.01 ± 0.046
TTTACAGCTT | 0.987 ± 0.027
GACAAAGGAC | 1.47 ± 0.09
GTTGGTGTGG | 0.9975 ± 0.0086
GGTAATTAAA | 0.974 ± 0.011
CGACAAGAGA | 1.47 ± 0.085
GGAACTGTCT | 1.01 ± 0.013
TTGGTTTGGC | 1.01 ± 0.019
AGCATTTTTC | 1.02 ± 0.028

Sequence | switch fluorescence ratio
GATGGGGTAA | 0.997 ± 0.008
AGCACAGGGG | 0.985 ± 0.045
GATTGCGGTC | 1.03 ± 0.016
CGGGTTAGCC | 0.998 ± 0.021
GAGGGGTTCG | 1.01 ± 0.022
AATTTGGGGC | 0.982 ± 0.022
GTGACCGCCC | 1.49 ± 0.39
TAACGCCCTA | 1.07 ± 0.019
TGAGGGGATC | 1.02 ± 0.015
TAAATAATTT | 1.01 ± 0.028
GGCATATTGT | 0.985 ± 0.025
GAGTGAGTGG | 1.019 ± 0.0056
ACTTGCGTCG | 0.981 ± 0.023
TTATGGGTAA | 1.03 ± 0.034
TTAATGGGGG | 1.06 ± 0.25
TAGCTCGGTG | 1 ± 0.042
AAGGGAGAGA | 1.02 ± 0.011
AGGGGATCAT | 0.981 ± 0.029
GTTTTGGTCC | 0.997 ± 0.012
TCGAGTATCT | 0.999 ± 0.019
CCAGGGGAGG | 1.11 ± 0.071
CAATTTACGG | 1.1 ± 0.036
TGATGCCGCT | 1.07 ± 0.083

Sequence | switch fluorescence ratio
CGTGAGTACG | 0.992 ± 0.01
CGGATAGTCA | 1.042 ± 0.0078
TATGATTTGT | 1 ± 0.019
GTTATTTGTT | 1.068 ± 0.0071
CGAAACATGA | 1.01 ± 0.014
GAGAAAAACC | 1.02 ± 0.041
TTTAGGGGGC | 1.03 ± 0.032
GACTGGATGG | 0.98 ± 0.011
GGGAGGGCTT | 1.05 ± 0.092
TGCAATGCAC | 1.558 ± 0.0038
CGGGGGACGT | 0.9794 ± 0.0085
GACGTTACCA | 1.61 ± 0.063
TGGGTTTTCA | 0.984 ± 0.016
TGTGTATCGG | 0.958 ± 0.034
CCGGGTCGGT | 0.9554 ± 0.0036
GAAGAGAGGG | 1.016 ± 0.0092
TTAAAGCGCG | 1.04 ± 0.024
GGTGATTTAA | 1.01 ± 0.012
GCTGGTGCTC | 1.06 ± 0.05
GGTAGCGAAA | 1.009 ± 0.0051
TGGTGTGACA | 0.995 ± 0.065
TTTTATCAAT | 1.003 ± 0.0076
TTGTTGGAAT | 1 ± 0.019

Sequence | switch fluorescence ratio
GTGGTGGGGG | 0.992 ± 0.034
CCTGGGCCGC | 1.65 ± 0.081
CGGGACAGTT | 1 ± 0.061
GGGAAACGGT | 1.03 ± 0.011
TTATGGTACA | 0.98 ± 0.019
GCTCAAGGAG | 0.9951 ± 0.0066
GGGGGCCGGG | 1.01 ± 0.052
ATCACTTGAC | 1.104 ± 0.0078
GGGGTGAAT | 1.01 ± 0.021
GAGGCTAATT | 1.03 ± 0.057
TGGCTATTGT | 0.9824 ± 0.0044
TATCCGAGGT | 1.16 ± 0.26
CGATGGGAGG | 1.06 ± 0.073
AGGTTCACCC | 1.07 ± 0.08
GGGTGGACAG | 0.975 ± 0.017
GGGGCTTTTA | 0.97 ± 0.01
ACTGATTTTG | 1.01 ± 0.029
TCGTTACGGG | 1.17 ± 0.26
AGTGGGATGG | 1.03 ± 0.037
TCCCCTCGGC | 1.08 ± 0.046
AAGTAAACAT | 1.06 ± 0.036
AGAGGGCGGA | 1 ± 0.02
CGCGGTGCTC | 3.17 ± 0.43

Sequence | switch fluorescence ratio
GGAGCTTTCA | 1.05 ± 0.088
CTGTCGTATG | 0.9749 ± 0.0082
TATTTTCGGG | 1.011 ± 0.0078
TTAACCTTTT | 1.36 ± 0.58
ATCCGCGTAG | 2.17 ± 0.017
CATTTAAAAA | 0.919 ± 0.032
TTAAATTTT | 1.01 ± 0.024
ACGATCGGCT | 1.06 ± 0.2
GAGTTTTGGA | 1.02 ± 0.026
TGTGTATGGT | 1.01 ± 0.022
TTATCATACG | 1.03 ± 0.024
GTGGCAGGCA | 0.984 ± 0.033
TTTAAGATAT | 1.09 ± 0.074
ACGAAGAAGT | 1.012 ± 0.0048
TGGTTTGGAA | 0.998 ± 0.05
TAAAAAAAGC | 1.031 ± 0.0015
CATAGTTCTG | 0.981 ± 0.028
GTTCTTTGTG | 1 ± 0.012
CGTAGTAACT | 1.11 ± 0.022
GGTCTAGAGA | 0.98 ± 0.033
GCCAGGGGAG | 1.1 ± 0.12
TTTAGGATCT | 0.954 ± 0.017
CGCAAAAGGG | 1.54 ± 0.41

Sequence | switch fluorescence ratio
TATGGGGTGG | 1.01 ± 0.015
AGTATAAAAA | 1.03 ± 0.062
TTAAAATCTG | 1.02 ± 0.027
TTTGCATCTA | 1.0306 ± 0.00072
AGTAATTTTA | 1.04 ± 0.04
GGGTCTTATG | 1.03 ± 0.078
GGGGTACCGG | 1.02 ± 0.032
TCGGTGAGGT | 0.9988 ± 0.0027
TAAAAAAGAA | 0.97 ± 0.03
CAGAACGGCA | 1.095 ± 0.0092
TTAAGGGGGA | 1.01 ± 0.025
GACTGGGGGT | 0.998 ± 0.033
AGGATGTAAA | 1.025 ± 0.0045
TCTTTTGGGG | 1.03 ± 0.024
GGGTTGTCAA | 0.975 ± 0.0099
ATGTGATAGT | 0.98 ± 0.015
CTTTTTTAAT | 0.982 ± 0.012
AAAGCCCGCG | 0.961 ± 0.066
TTCGTTCCAT | 0.986 ± 0.012
AAGGATGTAA | 0.995 ± 0.03
GAGGGATGTT | 1.01 ± 0.0092
GCATTTTGGG | 0.986 ± 0.033
GCTATAGAGG | 0.9846 ± 0.0072

Sequence | switch fluorescence ratio
AGCTGAGGGA | 1.015 ± 0.0066
CAGAACTGCG | 1.01 ± 0.015
GACGTGCGAC | 1.29 ± 0.079
ATACCGAGTG | 0.991 ± 0.029
CAATTGCGTA | 0.981 ± 0.068
GAGTACCAGG | 1.25 ± 0.017
GCTTTAATTG | 1.004 ± 0.0097
AGCGGATCGG | 0.991 ± 0.02
ATGAGGGGTT | 0.995 ± 0.032
CTTCGGGGTT | 1.03 ± 0.035
GTTCGTTAGG | 1.017 ± 0.0016
ATCGGAAAGC | 1.07 ± 0.028
CCAGCGTGCT | 1.11 ± 0.08
CGGGAGGGGT | 1.06 ± 0.14
TCACGTTGTT | 0.981 ± 0.036
TCTCTACTGG | 1.03 ± 0.058
GATGACTTGC | 1 ± 0.064
TGGTTGAATA | 0.998 ± 0.05
TTTTGGCGCA | 1.01 ± 0.0046
